Literature values in patent US9700485B2, “Delamination resistant pharmaceutical glass containers containing active pharmaceutical ingredients” (Corning Incorporated, priority 2013, dated 2017).
Where two headings read alike, the source gives them in different places.

Tests used:
[1] = target: T1, human IL-17 (Homo sapiens, UniProt Q16552); details: cited from earlier work; for Kd: read-out: KD or binding affinity
[2] = target: T2, EGFR (Homo sapiens, UniProt P00533); details: cited from earlier work
[3] = test system: EGFR-AP fusion protein; details: cited from earlier work; for Koff / Kon: BIAcore, immobilized EGFR-AP fusion protein
[4] = target: T3, EGFR on HT29 cells (Homo sapiens, UniProt P00533); details: 10 to 100 nM; cited from earlier work
T3 construct: HT29 cells were seeded at 2×10^4 cells per well; endogenous in cells; host or cells: HT29

[5] = test system: MAP kinases p44/p42; details: A431, BxPC3 and HT-29 cells; EGF stimulation; cited from earlier work
[6] = test system: DiFi cells; details: 72 hours; cited from earlier work
[7] = test system: DiFi cells; details: cited from earlier work
[8] = test system: A431 cells; details: cited from earlier work; for tumor growth: three times per week
[9] = test system: BxPC-3 cells; details: 1.0 mg/mouse/injection; out of 8 mice; cited from earlier work
[10] = test system: A431 and BxPC3 xenograft; details: A431 and BxPC3 xenograft sections; cited from earlier work
[11] = target: T2, EGFR; design: endogenous in cells; host or cells: A431; inhibition of EGFR phosphorylation: dose or concentration left out as unconfirmed; details: cited from earlier work
[12] = target: T2, EGFR; design: phosphorylation assay, was carried out using BxPC3 or A431 cells; endogenous in cells; host or cells: BxPC3 or A431; details: BxPC3 and A431 cells; vs control antibody; cited from earlier work
[13] = target: T1, human IL-17; details: as characterized in the description, cited from earlier work
[14] = 300 RPM, room temperature, 72 hours; cited from earlier work
[15] = cited from earlier work
[16] = lyophilized, 4° C., 40° C. and 50° C. up to 4 months; cited from earlier work
[17] = pre and post lyophilized, 0.1 mg/mL; cited from earlier work
[18] = cited from earlier work; for particulate counts =10 μm/mL / particulate counts =25 μm/mL / particulate counts =50 μm/mL: HIAC
[19] = test system: HT-29 cells; details: cited from earlier work
[20] = −20° C. up to 16 days; DOE; cited from earlier work
[21] = 40° C. up to 14 days; DOE; cited from earlier work
[22] = in use test, 10 samples, cited from earlier work
[23] = shaking test, 5 samples, cited from earlier work
[24] = target: T4, hTNFSF13b (Homo sapiens, UniProt Q9Y275); details: as characterized in the description (e.g.); cited from earlier work
T4 construct: purchased Research Diagnostics, Inc., Flanders, N.J

[25] = After Lyophilization, reconstituted to 5 mg/mL
[26] = Before Lyophilization, diluted to 5 mg/mL

T1 sequence (Q16552 24-155): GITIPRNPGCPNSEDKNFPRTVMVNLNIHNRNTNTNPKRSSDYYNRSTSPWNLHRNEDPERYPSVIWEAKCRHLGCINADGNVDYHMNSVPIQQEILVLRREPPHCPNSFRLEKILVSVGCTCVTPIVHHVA
T4 sequence (Q9Y275 134-285 limits assumed): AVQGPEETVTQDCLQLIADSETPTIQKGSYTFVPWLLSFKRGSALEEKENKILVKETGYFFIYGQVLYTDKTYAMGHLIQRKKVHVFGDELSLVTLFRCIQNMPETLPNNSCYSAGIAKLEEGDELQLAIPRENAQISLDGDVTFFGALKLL

IL-17 receptor Fc-fusion protein: IL-17 receptor Fc-fusion protein (R&D #177-IR)
fast off-rate ([1]; Bivalent analyte model, 25° C.): 20.3 s⁻¹ | on-rate ([1]; Bivalent analyte model, 25° C.): 106000 M⁻¹ s⁻¹ | slow off-rate ([1]; Bivalent analyte model, 25° C.): 0.000163 s⁻¹ | Kd ([1]; from fast off-rate): 190000 nM | Kd ([1]; from slow off-rate): 1.5 nM

IMC-11F8: fully human monoclonal antibody (IgG1) that binds to human EGFR
binding to EGFR (ELISA) [2]: comparable binding to EGFR | Koff ([3]; Format Fab): 36.7 ± 8.5 10^−4s^−1 | Kon ([3]; Format Fab): 22.9 ± 9.9 10^5 M^−1s^−1 | Kd ([3]; Format Fab, calculated as koff/kon): 1.78 ± 0.5 nM | Koff ([3]; Format IgG): 5.8 ± 2.2 10^−4s^−1 | Kon ([3]; Format IgG): 18.6 ± 7.7 10^5 M^−1s^−1 | inhibition of ^125I-EGF binding [4]: as efficient as IMC-C225 in inhibiting ^125I-EGF binding to EGFR on HT29 cells | p44/42 MAP kinases phosphorylation [5]: blocked p44/42 MAP kinases phosphorylation following EGF stimulation in A431, BxPC3 and HT-29 cells in a dose-dependent manner | inhibition of cell proliferation (MTT) [6]: as potent an inhibitor of cell proliferation as IMC-C225 | ADCC activity [7]: mediate cell death via activation of the Antibody Dependent Cellular Cytotoxicity | tumor growth ([8]; 0.3 mg dose i.p.): progression of tumor growth is retarded | tumor growth ([8]; 1 mg dose i.p.): as effective as IMC-C225 (CETUXIMAB) in suppressing or inhibiting tumor growth as compared to control animals | tumor regressions ([8]; 1.0 mg/mouse/injection, out of 8 animals): 6 | tumor regression [9]: 5 | Ki-67 positive cells [10]: reduced the percentage of Ki-67 positive cells across the entire tumor section | tumor cell density and necrotic area (IHC) [10]: markedly reduced the tumor cell density and increased the area of necrotic acellular debris within the tumors | inhibition of EGFR phosphorylation ([11]; A431, BxPC3, HT-29, lowest antibody concentration tested): Greater than 70% | EGFR phosphorylation (Western blot) ([11]; A431 cells): inhibits EGFR phosphorylation | phosphorylation of EGFR (KIRA) [12]: marked decrease in phosphorylation of EGFR

LY2439821: humanized anti-IL-17 (IL-17A) monoclonal antibody
koff rate from human IL-17 [13]: less than 2×10^−5 s^−1 | Kd ([13]; read-out: binding affinity (KD) for human IL-17): < 0.007 nM

IMC-A12: fully human IgG1/λ monoclonal antibody binding insulin-like growth factor-I receptor (IGF-IR)
percent loss and percent monomer as a function of pH [14]: Percent loss was least and percent monomer was highest between pH 6.0-7.0 | percent monomer ([15]; −20° C. and −70° C. up to 3 months, PBS and Citrate formulations): The percent monomer did not change with time in either formulation | percent monomer as a function of pH ([15]; −20° C. and −70° C., three weeks): The pH did not have significant effect on percent monomer | rate of monomer change [16]: smallest at lowest IMC-A12 concentration and at highest trehalose to IMC-A12 ratio | secondary structure (circular dichorism) [17]: Secondary structure of IMC-A12 was not altered because of lyophilization | particulate counts =10 μm/mL [18, 25]: 38.67 mL⁻¹ | particulate counts =25 μm/mL [18, 25]: 0.33 mL⁻¹ | particulate counts =50 μm/mL [18, 25]: 0.00 mL⁻¹ | particulate counts =10 μm/mL [18, 26]: 26.33 mL⁻¹ | particulate counts =25 μm/mL [18, 26]: 1.67 mL⁻¹ | particulate counts =50 μm/mL [18, 26]: 0.00 mL⁻¹ | particulate counts (HIAC) ([18]; before and after lyophilization, 5 mg/mL): The particulate counts did not changed significantly

Human IL-17: recombinant human IL-17 (R&D Systems)
AVG GROα ([19]; Human IL-17 0.10 ng/mL): 205.8 pg/mL | AVG GROα ([19]; Human IL-17 12.00 ng/mL): 960.0 pg/mL | AVG GROα (pg/mL) ([19]; Human IL-17 60.00 ng/mL): 1,556.0 pg/mL | AVG GROα (pg/mL) ([19]; Human IL-17 300.00 ng/mL): 2,047.5 pg/mL | AVG GROα (pg/mL) ([19]; Human IL-17 1500.00 ng/mL): 2,420.4 pg/mL

IMC-1121B: fully human monoclonal (IgG1) anti-VEGFR-2 (flk-1) antibody
optimal pH [20]: 6.0 | optimal buffer [21]: histidine at pH 6.0

21^A-Gly-30^Ba-L-Arg-30^B-L-Arg human insulin [Insulin glargine]
Number of vials with particle formation after 7 days ([22]; storage for 1 month at 37° C.): 0 | Number of vials with particle formation after 14 days ([22]; storage for 1 month at 37° C.): 10 | Number of vials with particle formation after 21 days ([22]; storage for 1 month at 37° C.): 10 | Number of vials with particle formation after 28 days ([22]; storage for 1 month at 37° C.): 10 | Number of vials with particle formation after 7 days ([22]; storage for 3 months at 5° C.): 7 | Number of vials with particle formation after 14 days ([22]; storage for 3 months at 5° C.): 10 | Number of vials with particle formation after 21 days ([22]; storage for 3 months at 5° C.): 10 | Number of vials with particle formation after 28 days ([22]; storage for 3 months at 5° C.): 10 | Number of vials with particle formation after 7 days ([22]; storage for 3 months at 25° C.): 9 | Number of vials with particle formation after 14 days ([22]; storage for 3 months at 25° C.): 10 | Number of vials with particle formation after 21 days ([22]; storage for 3 months at 25° C.): 10 | Number of vials with particle formation after 28 days ([22]; storage for 3 months at 25° C.): 10 | Number of vials with particle formation after 7 days ([22]; storage for 3 months at 37° C.): 5 | Number of vials with particle formation after 14 days ([22]; storage for 3 months at 37° C.): 9 | Number of vials with particle formation after 21 days ([22]; storage for 3 months at 37° C.): 10 | Number of vials with particle formation after 28 days ([22]; storage for 3 months at 37° C.): 10 | Number of vials with particle formation after 7 days ([22]; storage for 6 months at 5° C.): 7 | Number of vials with particle formation after 14 days ([22]; storage for 6 months at 5° C.): 10 | Number of vials with particle formation after 21 days ([22]; storage for 6 months at 5° C.): 10 | Number of vials with particle formation after 28 days ([22]; storage for 6 months at 5° C.): 10 | Number of vials with particle formation after 7 days ([22]; storage for 6 months at 25° C.): 10 | Number of vials with particle formation after 14 days ([22]; storage for 6 months at 25° C.): 10 | Number of vials with particle formation after 21 days ([22]; storage for 6 months at 25° C.): 10 | Number of vials with particle formation after 28 days ([22]; storage for 6 months at 25° C.): 10 | Number of vials with particle formation after 7 days ([22]; storage for 6 months at 37° C.): 10 | Number of vials with particle formation after 14 days ([22]; storage for 6 months at 37° C.): 10 | Number of vials with particle formation after 21 days ([22]; storage for 6 months at 37° C.): 10 | Number of vials with particle formation after 28 days ([22]; storage for 6 months at 37° C.): 10 | Number of Vials >15 FNU, 0 days ([23]; storage for 1 month at 5° C.): 0 | Number of Vials >15 FNU, 0.5 days ([23]; storage for 1 month at 5° C.): 0 | Number of Vials >15 FNU, 1 day ([23]; storage for 1 month at 5° C.): 0 | Number of Vials >15 FNU, 2 days ([23]; storage for 1 month at 5° C.): 2 | Number of Vials >15 FNU, 3 days ([23]; storage for 1 month at 5° C.): 3 | Number of Vials >15 FNU, 4 days ([23]; storage for 1 month at 5° C.): 3 | Number of Vials >15 FNU, 6 days ([23]; storage for 1 month at 5° C.): 4 | Number of Vials >15 FNU, 8 days ([23]; storage for 1 month at 5° C.): 4 | Number of Vials >15 FNU, 10 days ([23]; storage for 1 month at 5° C.): 4 | Number of Vials >15 FNU, 0 days ([23]; storage for 1 month at 25° C.): 0 | Number of Vials >15 FNU, 0.5 days ([23]; storage for 1 month at 25° C.): 0 | Number of Vials >15 FNU, 1 day ([23]; storage for 1 month at 25° C.): 0 | Number of Vials >15 FNU, 2 days ([23]; storage for 1 month at 25° C.): 1 | Number of Vials >15 FNU, 3 days ([23]; storage for 1 month at 25° C.): 1 | Number of Vials >15 FNU, 4 days ([23]; storage for 1 month at 25° C.): 1 | Number of Vials >15 FNU, 6 days ([23]; storage for 1 month at 25° C.): 1 | Number of Vials >15 FNU, 8 days ([23]; storage for 1 month at 25° C.): 2 | Number of Vials >15 FNU, 10 days ([23]; storage for 1 month at 25° C.): 3 | Number of Vials >15 FNU, 0 days ([23]; storage for 1 month at 37° C.): 0 | Number of Vials >15 FNU, 0.5 days ([23]; storage for 1 month at 37° C.): 0 | Number of Vials >15 FNU, 1 day ([23]; storage for 1 month at 37° C.): 0 | Number of Vials >15 FNU, 2 days ([23]; storage for 1 month at 37° C.): 2 | Number of Vials >15 FNU, 3 days ([23]; storage for 1 month at 37° C.): 5 | Number of Vials >15 FNU, 4 days ([23]; storage for 1 month at 37° C.): 5 | Number of Vials >15 FNU, 6 days ([23]; storage for 1 month at 37° C.): 5 | Number of Vials >15 FNU, 8 days ([23]; storage for 1 month at 37° C.): 5 | Number of Vials >15 FNU, 10 days ([23]; storage for 1 month at 37° C.): 5

B1: LY2127399: human monoclonal antibody that specifically binds to TNFSF13b polypeptides (antibody, chains of the INN, looked up, V domains shown)
VH: QVQLQQWGAGLLKPSETLSLTCAVYGGSFSGYYWSWIRQPPGKGLEWIGEINHSGSTNYNPSLKSRVTISVDTSKNQFSLKLSSVTAADTAVYYCARGYYDILTGYYYYFDYWGQGTLVTVSS
VL: EIVLTQSPATLSLSPGERATLSCRASQSVSRYLAWYQQKPGQAPRLLIYDASNRATGIPARFSGSGSGTDSTLTISSLEPEDFAVYYCQQRSNWPRTFGQGTKVEIK
Kd [24]: ≤ 10 nM
